Laboratory results from article PMC12495856.

Assays:
[1] = biological target: SARS-CoV-2 papain-like protease (PLpro) wild type (SARS-CoV-2)
[2] = biological target: SARS-CoV-2 PLpro TR (truncated form lacking the Ubl domain) (SARS-CoV-2)

human ISG15 (interferon-stimulated gene product 15) (from UniProt P05161 1-157) (natural protein)
IC50 of free ISG15 for inhibition of ISG15-AMC cleavage [1]: 2.05 µM | IC50 of free ISG15 for inhibition of Ub-AMC cleavage [1]: 1.59 µM | IC50 of free ISG15 for inhibition of ISG15-AMC cleavage [2]: 2.05 µM | IC50 of free ISG15 for inhibition of Ub-AMC cleavage [2]: 1.06 µM
